This is an account of results in publication PMC3234246, “HIV-1 Capsid-Cyclophilin Interactions Determine Nuclear Import Pathway, Integration Targeting and Replication Efficiency” (PLoS Pathogens, 2011).

In this experiment the target is T1, cyclophilin A (CypA), human (human, UniProt P62937 1-165).
T1 construct: human cyclophilin A (peptidyl-prolyl cis-trans isomerase A)
The experiment can be described thus: ITC; recombinant CypA or Nup358Cyp against recombinant CA^NTD, without cyclosporine; done as described in ref. 25. As to conditions: both partners purified.

B1: SIVmac capsid N-terminal domain (CA^NTD) (domain or fragment)
chain: not shown
modifications: No candidate fits. The accession (SIVmac Gag, isolate Mm142-83) is from memory because the isolate is not printed. Limits are CA residues 1-144, matching HIV-1 CA 1-146 (pdb 1M9D entity 2). Check …
As usually defined, the Kd is the constant that tells how readily two partners part at equilibrium. For B1, the dissociation constant (Kd) was around 800 µM.
